This experiment addresses Tetrahymena Bld10/CEP135 (Tetrahymena thermophila (endogenous in strain SB715)). The experiment is described as follows: cryo-EM structure; single-particle analysis of mechanically disrupted (splayed) centrioles isolated from Tetrahymena, 10 mM Hepes pH 7.5; proximal A-C linker (class 1) with adjacent microtubule triplet regions; focused maps 3.6 to 3.8 Å (B-C junction 3.8 and 4.0 Å, A-B junction 5.8 Å); proteins assigned by fitting AlphaFold2 models of MS-detected proteins (COLORES).

For the substance “Tetrahymena Bld10/CEP135 (natural protein)”, the stoichiometry N (in general, a count of units in the complex or per binding partner) turned out to be 2.

The values above are taken from article PMC12506977.
